Assay results from patent US8604172B2, “Humanized antibody compositions and methods for binding lysophosphatidic acid” (Lpath, Inc., priority 2009, dated 2013).
Marks after values point to notes of the source that are not given here.

What was measured:
[1] = Competition ELISA specificity, competitor C1P; assay type: binding; conditions: maximum inhibition, n = 3
Protocol: (§1) The specificity of the anti-LPA mAbs was assessed for their binding to LPA related biolipids such as distearoyl-phosphatidic acid, lysophosphatidylcholine, S1P, ceramide and ceramide-1-phosphate.

[2] = BiaCore surface plasmon resonance and direct binding ELISA of LT3000
Excerpt: (§2) The murine antibody is a full-length IgG1k isotype antibody composed of two identical light chains and two identical heavy chains with a total molecular weight of 155.5 kDa.

[3] = tested on: IL-6 release in SKOV3 cells; test: LPA-induced IL-6 release in SKOV3 cells; assay type: cell-based, human; conditions: Lpathomab 600 μg/mL; 1 μM 18:1 LPA; n = 3
Protocol: Anti-LPA antibodies inhibit the LPA-dependant release of human CXCL8/IL-8 in conditioned media of SKOV3 ovarian cells. SKOV3 cells (Lot No 4255558, passage 14) were harvested with 2 ml of 1× Trypsin EDTA (Mediatech Inc, Cat. No 25-053-CV) and resuspended in 8 ml of complete medium (10% FBS, Mediatech Inc. Cat. no 35-011-CV). The cells were centrifuged for 5 min ([…]) and re-suspended in 5 ml of complete medium. Cells were counted in duplicate with 0.4% Trypan blue (10 ul cells plus 90 ul Trypan blue, Invitrogen, Cat. No 15250-061) using a hemocytometer. In a 96-well plate, 1×10^5 cells per well were seeded (final volume 100 ul/well). The cells were allowed to attach and form a confluent monolayer by incubating overnight at 37° C. On the following day, cells were gently washed two times with minimum media (1 mg/ml BSA in McCoy's medium with L-glutamine, Mediatech, Cat. No 10-050-CV). […] The CXCL8/IL-8 levels in each supernatant were measured using the Quantikine human CXCL8/IL-8 ELISA kit according to vendor instructions (R&D Systems, Minneapolis Minn., Cat. No D8000C). The IL-6 levels were measured by ELISA using the Quantikine human IL-6 immunoassay kit (R&D systems, Cat. No. D6050). Data were analyzed by one-way ANOVA followed by Bonferroni's post test and expressed as human IL-8 or human IL-6 fold increase.

[4] = Competition ELISA specificity, competitor S1P; assay type: binding; conditions: maximum inhibition, n = 3
Protocol: as §1

[5] = Competition ELISA specificity, competitor Cer; assay type: binding; conditions: maximum inhibition, n = 3
Protocol: as §1

[6] = tested on: microblood vessel density in matrigel plugs; test: Matrigel plug assay (VEGF/bFGF), CD31 microvessel density; assay type: in vivo, C57BL/6 mice; conditions: for Percent Inhibition: vs control
Protocol: Female C57BL/6 mice around 8 to 10-weeks old and Matrigel Matrix High Concentration purchased from BD BioSciences (Franklin Lakes, N.J. (from BD) mixed with 50 ng/ml VEGF and 50 ng/ml bFGF, heparin 3 ng/ml as angiogenic stimuli were used for this study. There were five groups of mice, 10 Matrigel plugs were inoculated into five mice for each group on Day 0. One mouse group served as a control; four others receive drug treatment in four different doses by ip injection every other day. All treatments start at Day-1 and finish at Day 8.
Thirty C57bl/6 mice were implanted with Matrigel plugs in order to obtain 25 healthy mice with two well-shaped Matrigel plugs per mouse. On Day 0, 500 ul Matrigel at […] was subcutaneously injected to each side of the mouse, injection area was shaved. To increase the contact area of injected Matrigel into subcutaneous tissues and form a round shape plug, a wide subcutaneous pocket was formed by swaying the needlepoint right and left after a routine subcutaneous insertion. The injection was done rapidly with an appropriate size needle (21G-25G) to ensure the entire content was delivered in one plug. The injected Matrigel rapidly formed a single solid gel plug.
Animals were treated with 8 or 2 mg/kg of antibody or saline beginning 1 day prior to the implantation of Matrigel plugs or with the vehicle. Treatments were administered ip, on a q2d schedule.
Plugs from each group were collected at Day 12. The mice were euthanized and mouse skin was pulled back to expose the plug. The plugs was dissected out and fixed for histological analysis. Sections of 5 μm from paraffin-embedded plugs were stained with anti-CD-31 antibodies. Blood vessel density in a cross sectional area of each Matrigel plugs were analyzed. For each treatment group, at least six or more Matrigel plugs were quantitatively analyzed to assess any statistical significant difference of microvessel density between groups.

[7] = Specificity of LT3000 against other lipids and proteins; assay type: binding; conditions: over 100 lipids and proteins incl. over 20 bioactive lipids
Excerpt: as §2

Solubility = assay type: physicochemical; conditions: 6.6 mM phosphate, 154 mM sodium chloride, pH 7.4

- Kd [2]: 0.001 to 0.05 nM
- binding affinity for other bioactive lipids and proteins [7]: no binding affinity
B1: LT3000: Murine anti-LPA monoclonal antibody clone B7, IgG1k, renamed Lpathomab, also known as LT3000; hybridoma 504B7.1, ATCC PTA-8420 (antibody, V domains shown)
VH: QVQLQQSGAELVRPGTSVKVSCKASGYGFINYLIEWIKQRPGQGLEWIGLINPGSDYTNYNENFKGKATLTADKSSSTAYMHLSSLTSEDSAVYFCARRFGYYGSGNYFDYWGQGTTLTVSS
VL: DVVMTQTPLSLPVSLGDQASISCTSGQSLVHINGNTYLHWYLQKPGQSPKLLIYKVSNLFSGVPDRFSGSGSGTDFTLKISRVEAEDLGVYFCSQSTHFPFTFGTGTKLEIK
- MI (%), C1P [1]: 1.0%
- IL-6 Release, % Inhibition (over LPA taken as 100) [3]: 23* %
- MI (%), S1P [4]: 2.7%
- MI (%), Cer [5]: 1%
- microblood vessel density, Average ([6]; 2 mg/kg ip q2d): 34
- Percent Inhibition ([6]; 2 mg/kg ip q2d): 47.0%
- microblood vessel density, Average ([6]; 8 mg/kg ip q2d): 41.5
- Percent Inhibition ([6]; 8 mg/kg ip q2d): 35.4%
- Solubility (Solubility): >40 mg/mL in 6.6 mM phosphate, 154 mM sodium
